Results published in US20110091994A1, “Methods for Screening Compounds for Treating and/or Preventing an Hepatitis C Virus Infection” (priority 2008, published 2011).
Where two headings read alike, the source gives them in different places.

Key:
[1] = target: T1, HCV proteins (Hepatitis C virus genotype 1b, UniProt Q9WMX2); experiment: Validation by Y2H pairwise matrices; format: binding;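 further: yeast two-hybrid pairwise tests of interactions first found in Y2H screens of HCV bait proteins against human cDNA libraries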
T1 construct: expressed in transfected cells

[2] = target: T2, HCV ORFs (Gal4-DB fusions) (Hepatitis C virus genotype 1b, UniProt Q9WMX2); format: binding, HCV genotype 1b, isolate con1; conditions: human protein as prey
T2 construct: expressed in transfected cells; host or cells: Saccharomyces cerevisiae MAV203 (IMAP1) / AH109 (IMAP2)

[3] = system: HCV ORFs (Gal4-DB fusions); format: binding, HCV genotype 1b, isolate con1; conditions: human protein listed by gene symbol; the value names the HCV protein it interacts with
[4] = validation of interaction with HCV protein CORE
[5] = validation of interaction with HCV protein NS3
[6] = interaction with HCV protein NS5B
[7] = validation of interaction with HCV protein E2
[8] = validation of interaction with HCV protein NS2
[9] = validation of interaction with HCV protein NS4A
[10] = validation of interaction with HCV protein E1
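Wherever IMAP Y2H IMAP1 (number of IST) is given: yeast two-hybrid screens using HCV genotype 1b proteins fused to Gal4-DB as baits against prey cDNA libraries from human spleen and foetal brain, IMAP1 via transformation and IMAP2 via mating.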
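Wherever IMAP Y2H IMAP2 (number of IST) is given: yeast two-hybrid screens using HCV genotype 1b proteins fused to Gal4-DB as baits against prey cDNA libraries from human spleen and foetal brain, IMAP1 via transformation and IMAP2 via mating.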
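Wherever Interaction with viral protein is given: yeast two-hybrid screens using HCV genotype 1b proteins fused to Gal4-DB as baits against prey cDNA libraries from human spleen and foetal brain, IMAP1 via transformation and IMAP2 via mating.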

Row | Substance | Interaction with viral protein [3] | Y2H matrices [1, 5] | IMAP Y2H IMAP1 (number of IST) ([2]; HCV protein NS3 as bait) | other results
1 | AGRN | CORE | – | – | Y2H matrices [1, 4]: +; IMAP Y2H IMAP1 (number of IST) ([2]; HCV protein CORE as bait): 1
2 | ANKRD12 | NS3 | + | 1 | –
3 | APOA1 | NS3/4A and NS4B and NS2 and NS3 | – | – | –
4 | ARNT | NS3 | + | 1 | –
5 | ASXL1 | NS5A and NS3 | + | 1 | –
6 | AXIN1 | NS5A | – | – | IMAP Y2H IMAP2 (number of IST) ([2]; HCV protein NS5A as bait): 1
7 | BZRAP1 | NS3 | + | 1 | –
8 | CADPS | NS5A | – | – | IMAP Y2H IMAP2 (number of IST) ([2]; HCV protein NS5A as bait): 1
9 | CADPS2 | NS5A | – | – | IMAP Y2H IMAP2 (number of IST) ([2]; HCV protein NS5A as bait): 1
10 | CELSR2 | NS3 | + | 1 | –
11 | CEP63 | NS5A | – | – | IMAP Y2H IMAP2 (number of IST) ([2]; HCV protein NS5A as bait): 1
12 | CEP152 | NS3 | + | 1 | –
13 | CEP192 | NS3 | + | 1 | –
14 | CEP250 | NS5A | – | – | IMAP Y2H IMAP2 (number of IST) ([2]; HCV protein NS5A as bait): 15; IMAP Y2H IMAP2 (number of IST) ([2]; HCV protein NS5B as bait): 1
15 | CFP | NS3 | + | 4 | –
16 | COL4A2 | CORE | – | – | Y2H matrices [1, 4]: +; IMAP Y2H IMAP1 (number of IST) ([2]; HCV protein CORE as bait): 1
17 | CSNK2B | NS3 | + | 3 | –
18 | DOCK7 | NS3 | – | – | IMAP Y2H IMAP2 (number of IST) ([2]; HCV protein NS3 as bait): 2
19 | FBN3 | NS3 | + | 2 | –
20 | FHL2 | NS5A | – | – | IMAP Y2H IMAP2 (number of IST) ([2]; HCV protein NS5A as bait): 1
21 | FLAD1 | NS3 | + | 1 | –
22 | GAA | NS3 | + | 2 | –

Row | Substance | Interaction with viral protein [3] | Y2H matrices [1, 5] | IMAP Y2H IMAP1 (number of IST) ([2]; HCV protein NS3 as bait) | other results
23 | GAPDH | CORE | – | – | Y2H matrices [1, 4]: +; IMAP Y2H IMAP1 (number of IST) ([2]; HCV protein CORE as bait): 1
24 | GFAP | NS3 | + | 43 | –
25 | GON4L | NS3 | + | 1 | –
26 | HIVEP2 | NS3 and CORE | + | 3 | IMAP Y2H IMAP2 (number of IST) ([2]; HCV protein CORE as bait): 2; IMAP Y2H IMAP2 (number of IST) ([2]; HCV protein NS3 as bait): 5
27 | HNRPK | – | – | – | IMAP Y2H IMAP2 (number of IST) ([2]; HCV protein CORE as bait): 14; IMAP Y2H IMAP2 (number of IST) ([2]; HCV protein NS3 as bait): 1
28 | HOXD8 | – | – | – | Y2H matrices [1, 6]: +; Y2H matrices [1, 4]: +; Y2H matrices [1, 7]: +; Y2H matrices [1, 8]: +; Y2H matrices [1, 9]: +; IMAP Y2H IMAP1 (number of IST) ([2]; HCV protein CORE as bait): 1; IMAP Y2H IMAP1 (number of IST) ([2]; HCV protein E2 as bait): 1; IMAP Y2H IMAP1 (number of IST) ([2]; HCV protein NS2 as bait): 1; IMAP Y2H IMAP1 (number of IST) ([2]; HCV protein NS4A as bait): 1; IMAP Y2H IMAP1 (number of IST) ([2]; HCV protein NS5B as bait): 1
29 | ITGB1 | – | – | – | Y2H matrices [1, 7]: +; IMAP Y2H IMAP1 (number of IST) ([2]; HCV protein E2 as bait): 1
30 | ITGB4 | NS3 | + | 7 | –
31 | JAG2 | NS3 | + | 1 | –
32 | JUN | – | + | 8 | Y2H matrices [1, 10]: +; IMAP Y2H IMAP1 (number of IST) ([2]; HCV protein E1 as bait): 1
33 | KHDRBS1 | NS3 | + | 4 | –
34 | KIAA1549 | NS3 | + | 1 | –
35 | LAMA5 | NS3 | + | 1 | –
36 | LAMB2 | NS3 | + | 1 | –
37 | LAMC3 | NS3 | + | 1 | –
38 | LRRC7 | NS3 | – | – | IMAP Y2H IMAP2 (number of IST) ([2]; HCV protein NS3 as bait): 6
39 | LTBP4 | NS3 and CORE | + | 2 | Y2H matrices [1, 4]: +; IMAP Y2H IMAP1 (number of IST) ([2]; HCV protein CORE as bait): 4
40 | MAPK7 | NS3 | + | 4 | –
41 | MEGF6 | CORE | – | – | Y2H matrices [1, 4]: +; IMAP Y2H IMAP1 (number of IST) ([2]; HCV protein CORE as bait): 1
42 | MEGF8 | NS3 | + | 2 | –
43 | MLLT4 | NS3 | + | 2 | –
44 | MVP | NS3 | + | 1 | –

Row | Substance | Interaction with viral protein [3] | Y2H matrices [1, 5] | IMAP Y2H IMAP1 (number of IST) ([2]; HCV protein NS3 as bait) | other results
45 | NCAN | NS3 | + | 1 | –
46 | NDC80 | NS3 | – | – | IMAP Y2H IMAP2 (number of IST) ([2]; HCV protein NS3 as bait): 1
47 | NELL2 | NS3 | + | 11 | –
48 | NOTCH1 | NS3 | + | 2 | –
49 | NR4A1 | – | – | – | Y2H matrices [1, 6]: +; Y2H matrices [1, 4]: +; Y2H matrices [1, 10]: +; Y2H matrices [1, 7]: +; Y2H matrices [1, 8]: +; Y2H matrices [1, 9]: +; IMAP Y2H IMAP1 (number of IST) ([2]; HCV protein CORE as bait): 31; IMAP Y2H IMAP1 (number of IST) ([2]; HCV protein E1 as bait): 14; IMAP Y2H IMAP1 (number of IST) ([2]; HCV protein E2 as bait): 6; IMAP Y2H IMAP1 (number of IST) ([2]; HCV protein NS2 as bait): 5; IMAP Y2H IMAP1 (number of IST) ([2]; HCV protein NS4A as bait): 3; IMAP Y2H IMAP1 (number of IST) ([2]; HCV protein NS5B as bait): 8
50 | OBSCN | NS3 | – | 1 | –
51 | PARP4 | NS3 | + | 8 | –
52 | PDE4DIP | NS3 | + | 3 | –
53 | PSMA6 | – | – | – | Y2H matrices [1, 7]: +; IMAP Y2H IMAP1 (number of IST) ([2]; HCV protein E2 as bait): 1
54 | PSME3 | NS3 | + | 10 | –
55 | RGNEF | NS3 | + | 1 | –
56 | ROGDI | NS3 | – | – | IMAP Y2H IMAP2 (number of IST) ([2]; HCV protein NS3 as bait): 1
57 | SETD2 | – | – | – | Y2H matrices [1, 6]: +; Y2H matrices [1, 4]: +; Y2H matrices [1, 10]: +; Y2H matrices [1, 7]: +; Y2H matrices [1, 8]: +; IMAP Y2H IMAP1 (number of IST) ([2]; HCV protein CORE as bait): 5; IMAP Y2H IMAP1 (number of IST) ([2]; HCV protein E1 as bait): 2; IMAP Y2H IMAP1 (number of IST) ([2]; HCV protein E2 as bait): 1; IMAP Y2H IMAP1 (number of IST) ([2]; HCV protein NS2 as bait): 1; IMAP Y2H IMAP1 (number of IST) ([2]; HCV protein NS5B as bait): 3
58 | SHARPIN | NS5A | – | – | IMAP Y2H IMAP2 (number of IST) ([2]; HCV protein NS5A as bait): 2; IMAP Y2H IMAP2 (number of IST) ([2]; HCV protein NS5B as bait): 1
59 | SYNE1 | NS3 | – | – | IMAP Y2H IMAP2 (number of IST) ([2]; HCV protein NS3 as bait): 4
60 | THBS1 | NS5A | – | – | IMAP Y2H IMAP2 (number of IST) ([2]; HCV protein NS5A as bait): 7
61 | TMSB4X | – | – | – | Y2H matrices [1, 10]: +; IMAP Y2H IMAP1 (number of IST) ([2]; HCV protein E1 as bait): 1
62 | TRIOBP | – | – | – | IMAP Y2H IMAP2 (number of IST) ([2]; HCV protein NS5A as bait): 2
63 | TUBB2C | – | – | – | Y2H matrices [1, 6]: +; IMAP Y2H IMAP1 (number of IST) ([2]; HCV protein NS5B as bait): 1
64 | UBQLN4 | – | – | – | Y2H matrices ([1]; interaction with HCV protein p7): +; IMAP Y2H IMAP1 (number of IST) ([2]; HCV protein p7 as bait): 3
